Measured values from patent US20200340016.

How the values were obtained:
Test in all cases: cell_activity
[1] = system: ZFN pair SBS51857-ELD / SBS51949-KKR (BCL11A) (artificial)
[2] = system: ZFN pair SBS51857-ELD / SBS51949-KKR R416S R416S (FokI of 51949) (artificial)
[3] = system: ZFN pair SBS51857-ELD / SBS51949-KKR K448S K448S (FokI of 51949) (artificial); conditions: 60 ug/mL each mRNA
[4] = system: ZFN pair SBS51857-ELD / SBS51949-KKR K525S K525S (FokI of 51949) (artificial); conditions: 60 ug/mL each mRNA
[5] = system: ZFN pair SBS51857-ELD / SBS51949-KKR R447S R447S (FokI of 51949) (artificial); conditions: CD34+ cells, near background
[6] = system: ZFN pair SBS63014 / SBS65527 (3x R-5Q / 5x R-5Q + FokI R416S) three and five finger R(-5)Q; FokI R416S in 65527 (artificial); conditions: 60 ug dose; no evidence of cleavage
[7] = system: ZFN pair SBS63014 / SBS65526 (3x R-5Q / 4x R-5Q + FokI R416S) three and four finger R(-5)Q; FokI R416S in 65526 (artificial); conditions: 60 ug dose
[8] = system: ZFN pair SBS63014 / SBS65721 (3x R-5Q / 3x R-5Q + FokI R416S) three finger R(-5)Q in each ZFN; FokI R416S in 65721 (artificial); conditions: 60 ug dose
[9] = system: ZFN pair 52742-ELD R422S / 52774-KKR R422S (FokI of 52742) (artificial); conditions: 400 ng mRNA
[10] = system: ZFN pair 52742-ELD / 52774-KKR K387S K387S (FokI of 52774) (artificial); conditions: 400 ng mRNA
[11] = system: ZFN pair 52742-ELD R447S / 52774-KKR R447S (FokI of 52742) (artificial); conditions: 400 ng mRNA
[12] = system: ZFN pair SBS52742-ELD / SBS52774-KKR (TRAC) (artificial)
[13] = system: ZFN pair 52742-ELD / 52774-KKR K525S K525S (FokI of 52774) (artificial); conditions: 400 ng mRNA
[14] = system: ZFN pair 52742-F1RQ;F3RQ;F5RQ / 52774 R(-5)Q in F1, F3 and F5 of 52742 (artificial); conditions: 6 ug dose
[15] = system: ZFN pair 52742-ELD / 52774-KKR R416S R416S (FokI of 52774) (artificial); conditions: 400 ng mRNA
[16] = system: ZFN pair 30035 / 30054 ELD_KKR_I479T I479T (FokI, both ZFNs) (artificial)
[17] = system: ZFN pair 30035 / 30054 ELD_KKR_R416D R416D (FokI, both ZFNs) (artificial)
[18] = system: ZFN pair 30035 / 30054 ELD_KKR_Q481E Q481E (FokI, both ZFNs) (artificial)
[19] = system: ZFN pair 30035 / 30054 ELD_KKR_K525P K525P (FokI, both ZFNs) (artificial)
[20] = system: ZFN pair 30035 / 30054 (AAVS1) (artificial)
[21] = system: ZFN pair 30035 / 30054 ELD_KKR_R416E R416E (FokI, both ZFNs) (artificial)
[22] = system: ZFN pair 30035 / 30054 ELD_KKR_K525A K525A (FokI, both ZFNs) (artificial)
[23] = CD34+ cells, 2 ug mRNA each ZFN

“CCTACCCCCACCACCTCACCTTCCCTCAGCCTTGTGTTTCAGCCCCAGTTAGCTGCCCTTAGTTGCTGATGTATTG (double strand) [off-target GJZEIYTO (OT2)]” gave an activity ([1]; 60 ug/mL each mRNA) of 2.81 % indels and an activity ([2]; 60 ug/mL each mRNA) of 0.31 % indels.

“TCCTCCATGCTCAGAAAGCCTTTCTTGGAGCCAGGCACACAGGAAATGTTAGCTAGTTAGCATTGGCTCTAATACT (double strand) [off-target PEVYOHIU (OT3)]” gave an activity [3] of 4.4 % indels, an activity [4] of 0.13 % indels and an activity [5] of 0.03 % indels. For the same substance, the activity [6] was 0.02 % indels, the activity [1, 23] was 0.65 % indels and the activity ([7]; no evidence of cleavage) was 0.02 % indels. For the same substance, the activity [2, 23] was 0.08 % indels and the activity ([8]; parent 4.77) was 0.04 % indels.

“CTTCCTGCGGGGTTTTGTGCAAATAACCCATGCTCGGGAGCGAGGCCCTGGGAAGGAGTATCTCGCTTCTTTGGGT (double strand) [off-target NIFMAEVG (OT1)]” gave an activity ([3]; parent 21.96) of 8.9 % indels, an activity ([4]; parent 21.96) of 0.89 % indels and an activity [5] of 0.05 % indels. It also gave an activity [6] of 0.03 % indels, an activity [1, 23] of 9.04 % indels and an activity [7] of 0.17 % indels. For the same substance, the activity [2, 23] was 0.75 % indels and the activity ([8]; parent 28.0) was 0.55 % indels.

In the case of “CCATATGCAGAAAACAGAAACTGTACCCCTTCCTTACACC (double strand) [off-target XSKWTVWD (OT16)]”, the activity [9] is reported as 1.18 % indels, the activity [10] is reported as 3.12 % indels and the activity [11] is reported as 0.32 % indels. For the same substance, the activity ([12]; 400 ng mRNA each ZFN) was 7.39 % indels, the activity [13] was 0.96 % indels and the activity ([14]; parent 19.16) was 1.43 % indels. It also gave an activity [15] of 0.74 % indels.

For “GACTCATTCATCCACTCATTCTGAGCACTTGCTGCACACTAGGCCCTGGGCTGGGGCTTCAGCCCAGGAGTTCACT (double strand) [off-target ZJCRPAXW (OT4)]”, the activity ([1]; 60 ug/mL each mRNA) was 1.12 % indels and the activity ([2]; 60 ug/mL each mRNA) was 0.65 % indels.

“TCAGTGATTGGGTTCCGAATCCTCCTCCTGAAAGTGGCCG (double strand) [TRAC intended target JBSCKVMP]” was tested, and the activity [9] was 89 % indels, the activity [10] was 89.1 % indels and the activity [11] was 70.3 % indels. It also gave an activity ([12]; 400 ng mRNA each ZFN) of 90.7 % indels, an activity [13] of 88.3 % indels and an activity ([14]; parent 62.59) of 70 % indels. The activity [15] was 87.1 % indels.

AAVS1 intended target was tested, and the activity [16] was 52.5 % indels, the activity [17] was 70.6 % indels and the activity [18] was 69.9 % indels. The activity [19] was 0.01 % indels, the activity [20] was 57.8 % indels and the activity [21] was 91.1 % indels. The activity [22] was 73.8 % indels.

For “TGGCCCTTTGCAGAAAAGGTTGTTGAACCCTACCGTAAAC (double strand) [off-target XVFENVRX (OT11)]”, the activity [9] was 1.09 % indels, the activity [10] was 3.27 % indels and the activity [11] was 0.14 % indels. It also gave an activity ([12]; 400 ng mRNA each ZFN) of 5.82 % indels, an activity [13] of 0.79 % indels and an activity ([14]; parent 4.32) of 0.47 % indels. For the same substance, the activity [15] was 0.93 % indels.

With “CCGGAGAGAAGGCTCCGGTTCAGCACTGAGATCAGGACGG (double strand) [off-target KXWACMTR (OT3)]” the activity ([12]; 6 ug dose) was 1.59 % indels and the activity ([14]; parent 1.59) was 0.19 % indels.
